US20250277029A1 (Amgen, published 2025)
Numbering of substitutions follows the chain as printed. Numbers in names are those of the source.

B1: LIBC529593-1 (Fab) (Fab, V domains shown)
VH: QVQLQESGPGLVKPSQTLSLTCTVSGGSIRRGGDYWSWIRQHPGKGLEWIGHIYYSGSTNYNPSLRSRVRISVDTSKNQFSLKLSSVTAADTAVYYCARDYDILTGYSYYYYGLDVWGQGTTVTVSS
VL: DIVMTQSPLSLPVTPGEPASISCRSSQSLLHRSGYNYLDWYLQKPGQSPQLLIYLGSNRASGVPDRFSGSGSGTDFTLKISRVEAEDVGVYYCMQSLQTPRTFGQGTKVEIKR
B2: LIBC673952-1 (Fab on yeast) (Fab, V domains shown)
VH: B1 VH with I53V, S56T, S58Q, N60T, L65F, S67G, R70T, D74N, S76Y
VL: DIVMTQSPLSLPVTPGEPASISCRSSQSLLHRSGYNYLDWYLQKPGQSPQLLIYQGSNRASGVPDRFSGSGSGTDFTLKISRVEAEDVGVYYCRQARALPRTFGQGTKVEIKR
notes: Clone of the Fab-yeast libraries
B3: LIBC674153-1 (Fab on yeast) (Fab, V domains shown)
VH: QVQLQESGPGLVKPSQTLSLTCTVSGGSIRRGGDYWSWIRQHPGKGLEWIGHVYYTGSTAYNPSFRGRVRISVNTYKNQFSLKLSSVTAADTAVYYCARGYDTSGYSYYYYGLDVWGQGTTVTVSS
VL: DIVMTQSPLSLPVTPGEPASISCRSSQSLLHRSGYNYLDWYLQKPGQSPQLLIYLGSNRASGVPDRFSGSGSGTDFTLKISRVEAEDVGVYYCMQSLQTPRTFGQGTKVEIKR
notes: as for B2
B4: LIBC674235-1 (Fab on yeast) (Fab, V domains shown)
VH: B3 VH with T56A, A60T, F65L, R66K, G67S, T103V
VL: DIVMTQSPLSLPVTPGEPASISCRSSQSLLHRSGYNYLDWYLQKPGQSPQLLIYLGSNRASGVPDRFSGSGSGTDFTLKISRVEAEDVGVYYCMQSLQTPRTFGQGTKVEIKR
notes: as for B2
B5: LIBC674257-1 (Fab on yeast) (Fab, V domains shown)
VH: B3 VH with V53I, S58Q, A60K, F65L, T103I
VL: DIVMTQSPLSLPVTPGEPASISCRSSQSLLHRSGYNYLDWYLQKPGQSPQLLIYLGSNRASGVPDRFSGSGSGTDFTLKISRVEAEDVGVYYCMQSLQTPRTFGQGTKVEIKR
notes: as for B2
B6: LIBC673972-1 (Fab on yeast) (Fab, V domains shown)
VH: B3 VH with V53I, S58Q, S64N, F65L, G67N, T103A
VL: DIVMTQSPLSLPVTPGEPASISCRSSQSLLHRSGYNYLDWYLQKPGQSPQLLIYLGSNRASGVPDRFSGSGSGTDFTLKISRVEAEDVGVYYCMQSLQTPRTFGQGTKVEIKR
notes: as for B2
B7: LIBC674035-1 (Fab on yeast) (Fab, V domains shown)
VH: B3 VH with V53I, T56A, S58Q, A60K, R66K, G67N, T103I
VL: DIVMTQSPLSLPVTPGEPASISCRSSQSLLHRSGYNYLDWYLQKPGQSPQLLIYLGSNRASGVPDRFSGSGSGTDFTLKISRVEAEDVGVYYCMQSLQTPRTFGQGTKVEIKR
notes: as for B2
B8: LIBC674200-1 (Fab on yeast) (Fab, V domains shown)
VH: B3 VH with S58Q, S64N, G67N, T103V, L113M
VL: B2 VL with Q55L, D65G, R94M, A96S, R97L, A98Q, L99T
notes: Original clone of the Fab-yeast libraries, without the LC G76D reversion
B9: LIBC673948-1 (Fab on yeast) (Fab, V domains shown)
VH: B3 VH with V53I, A60K, F65L, R66K, G67N, T103V
VL: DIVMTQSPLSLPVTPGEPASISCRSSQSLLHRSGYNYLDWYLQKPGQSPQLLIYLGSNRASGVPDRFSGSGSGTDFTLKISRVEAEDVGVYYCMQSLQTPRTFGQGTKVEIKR
notes: as for B2
B10: LIBC674043-1 (Fab on yeast) (Fab, V domains shown)
VH: B3 VH with V53I, S58Q, A60T, S64N, R66K, T103A, L113M, S126R
VL: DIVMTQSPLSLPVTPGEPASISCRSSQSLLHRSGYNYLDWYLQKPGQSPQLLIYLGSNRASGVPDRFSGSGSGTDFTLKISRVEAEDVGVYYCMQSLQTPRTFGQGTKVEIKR
notes: Original clone of the Fab-yeast libraries, without the R149S reversion
B11: LIBC674002-1 (Fab on yeast) (Fab, V domains shown)
VH: B3 VH with V53I, T56K, A60E, F65L, T103V
VL: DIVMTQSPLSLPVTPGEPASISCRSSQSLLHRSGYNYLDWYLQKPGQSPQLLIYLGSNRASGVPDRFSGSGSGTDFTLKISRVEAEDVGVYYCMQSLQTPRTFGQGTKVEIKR
notes: as for B2
B12: LIBC673982-1 (Fab on yeast) (Fab, V domains shown)
VH: B3 VH with V53I, A60T, G100D, T103I, L113M
VL: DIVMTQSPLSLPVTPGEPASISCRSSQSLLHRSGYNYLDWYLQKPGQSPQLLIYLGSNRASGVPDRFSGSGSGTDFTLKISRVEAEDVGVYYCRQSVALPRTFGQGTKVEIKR
notes: as for B2
B13: LIBC674090-1 (Fab on yeast) (Fab, V domains shown)
VH: B3 VH with V53I, T56A, S64N
VL: B2 VL with R94M, A96S, R97L, A98Q, L99T
notes: as for B2
B14: LIBC674276-1 (Fab on yeast) (Fab, V domains shown)
VH: B3 VH with A60T, S64N, R66K, T103A
VL: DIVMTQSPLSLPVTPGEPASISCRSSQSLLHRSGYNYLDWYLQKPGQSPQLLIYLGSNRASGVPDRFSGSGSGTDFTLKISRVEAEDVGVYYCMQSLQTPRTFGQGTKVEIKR
notes: as for B2
B15: LIBC673965-1 (Fab on yeast) (Fab, V domains shown)
VH: B3 VH with S58Q, F65L
VL: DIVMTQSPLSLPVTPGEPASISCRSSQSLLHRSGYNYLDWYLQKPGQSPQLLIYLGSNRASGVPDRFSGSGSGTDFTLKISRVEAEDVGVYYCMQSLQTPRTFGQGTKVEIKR
notes: as for B2
B16: LIBC674229-1 (Fab on yeast) (Fab, V domains shown)
VH: B3 VH with V53I, Y55Q, S58Q, A60K, R66K, T103V, L113M
VL: B2 VL with R94M, A96S, R97L, A98Q, L99T
notes: as for B2
B17: LIBC674216-1 (Fab on yeast) (Fab, V domains shown)
VH: B3 VH with V53I, S58Q, F65L, G67N, T103I
VL: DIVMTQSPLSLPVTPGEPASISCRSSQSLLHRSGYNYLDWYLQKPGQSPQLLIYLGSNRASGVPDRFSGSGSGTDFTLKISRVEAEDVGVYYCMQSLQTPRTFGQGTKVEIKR
notes: as for B2
B18: LIBC674024-1 (Fab on yeast) (Fab, V domains shown)
VH: B3 VH with Y55Q, A60K, R66K, G67N, T103V
VL: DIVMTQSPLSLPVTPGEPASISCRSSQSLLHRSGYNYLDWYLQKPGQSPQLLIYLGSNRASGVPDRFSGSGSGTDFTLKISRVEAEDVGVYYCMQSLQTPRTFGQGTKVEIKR
notes: as for B2
B19: LIBC674214-1 (Fab on yeast) (Fab, V domains shown)
VH: B3 VH with T56E, A60K, T103V
VL: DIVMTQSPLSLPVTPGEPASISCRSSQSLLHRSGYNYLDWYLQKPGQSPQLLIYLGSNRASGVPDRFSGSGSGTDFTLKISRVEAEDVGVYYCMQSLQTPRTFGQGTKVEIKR
notes: as for B2

The binders below were run against T1, GFP-fused huCB1-SMALP (human, UniProt P21554 1-472) (assay: flow cytometry, yeast-displayed Fab, 10 nM CB1 SMALP).
T1 construct: Human CB1 fused to GFP in styrene maleic acid lipoparticles, made as in Luna et al. 2018; also called huCB1-GFP-SMALP; GFP-tagged huCB1-SMALP; not shown: GFP fused to huCB1
T1 sequence (P21554 whole entry, the tested form may be a part): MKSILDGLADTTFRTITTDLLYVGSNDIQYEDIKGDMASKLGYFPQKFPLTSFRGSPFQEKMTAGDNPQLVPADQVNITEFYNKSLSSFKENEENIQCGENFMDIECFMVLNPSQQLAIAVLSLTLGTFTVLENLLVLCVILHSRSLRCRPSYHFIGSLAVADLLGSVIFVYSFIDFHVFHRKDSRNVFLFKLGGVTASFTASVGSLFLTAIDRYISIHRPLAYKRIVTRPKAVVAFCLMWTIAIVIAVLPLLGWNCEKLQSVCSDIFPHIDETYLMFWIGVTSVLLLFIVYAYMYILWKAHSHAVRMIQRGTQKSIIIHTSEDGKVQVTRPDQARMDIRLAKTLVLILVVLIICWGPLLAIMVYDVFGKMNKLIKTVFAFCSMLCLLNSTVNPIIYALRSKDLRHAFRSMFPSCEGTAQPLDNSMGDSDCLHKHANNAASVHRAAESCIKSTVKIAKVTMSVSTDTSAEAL

Binder | relative binding fold change compared to LIBC523797-1(Fab) [fold]
B1 | 1.06
B2 | 1.91
B3 | 2.62
B4 | 2.05
B5 | 3.34
B6 | 2.46
B7 | 2.74
B8 | 3.31
B9 | 2.46
B10 | 3.23
B11 | 2.59
B12 | 2.16
B13 | 2.85
B14 | 2.06
B15 | 2.5
B16 | 3.17
B17 | 1.96
B18 | 2.39
B19 | 2.1

These binders were tested against T1, GFP-fused huCB1-SMALP (assay: flow cytometry, yeast-displayed Fab, 5 nM CB1 SMALP).

Binder | relative binding fold change compared to LIBC523797-1(Fab) [fold]
B1 | 1.42
B2 | 1.23
B3 | 1.35
B4 | 1.3
B5 | 1.19
B6 | 1.46
B7 | 1.29
B8 | 1.33
B9 | 1.37
B10 | 1.2
B11 | 1.49
B12 | 1.24
B13 | 1.2
B14 | 1.17
B15 | 1.3
B16 | 1.11
B17 | 1.1
B18 | 1.24
B19 | 1.17

These binders were tested against T2, Empty ND (assay: flow cytometry, yeast-displayed Fab, 50 nM Empty ND).
T2 construct: It carries no receptor; the scaffold is its only protein; also called empty nanodisc

Binder | relative binding fold change compared to LIBC523797-1(Fab) [fold]
B1 | 1.14
B2 | 0.62
B3 | 0.33
B4 | 0.72
B5 | 0.73
B6 | 0.4
B7 | 0.56
B8 | 0.74
B9 | 0.48
B10 | 0.75
B11 | 0.03
B12 | 0.6
B13 | 0.99
B14 | 0.51
B15 | 0.43
B16 | 0.75
B17 | 0.65
B18 | 0.55
B19 | 1.09

The binders below were run against T3, His-tagged huCB1-ND (human, UniProt P21554 99-414, limits assumed) (assay: flow cytometry, yeast-displayed Fab, 0.5 nM CB1 ND).
T3 construct: The real construct may be truncated or engineered; also called CB1-nanodisc; not shown: histidine purification tag
T3 sequence (P21554 99-414 limits assumed): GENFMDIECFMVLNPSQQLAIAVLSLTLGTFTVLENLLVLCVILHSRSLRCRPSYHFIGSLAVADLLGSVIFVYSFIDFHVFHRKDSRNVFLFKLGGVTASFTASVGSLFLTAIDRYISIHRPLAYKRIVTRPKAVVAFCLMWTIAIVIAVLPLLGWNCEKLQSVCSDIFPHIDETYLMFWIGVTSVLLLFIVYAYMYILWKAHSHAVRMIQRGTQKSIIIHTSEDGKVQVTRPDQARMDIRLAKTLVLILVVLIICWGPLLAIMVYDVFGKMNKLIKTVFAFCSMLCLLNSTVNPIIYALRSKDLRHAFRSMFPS

Binder | relative binding fold change compared to LIBC523797-1(Fab) [fold]
B1 | 0.38
B2 | 0.77
B3 | 1.83
B4 | 1.28
B5 | 1.86
B6 | 0.63
B7 | 0.52
B8 | 2.08
B9 | 0.64
B10 | 1.85
B11 | 0.46
B12 | 0.78
B13 | 1.35
B14 | 2.04
B15 | 0.65
B16 | 2.22
B17 | 1.66
B18 | 0.49
B19 | 1.76
